# Reference: patent US12495796B2, “Compositions, methods, and applications of a synthetic surfactant” (1283581 B.C. LTD, priority 2019, dated 2025)
# B1: RSN 3: recombinant mature ranaspumin protein without signal peptide, Synthetic Amino Acid Sequence No. 3 (protein, listed as Engystomops pustulosus)
# chain: IDPTGLVQILLLEQVVHKIPPGNINLARTGIATQDSDYTASAVPSEARLAIDGNRNSDFNQKSCSHTGGNEPAWWRLELKKKSKISVVVIAIRSDCCMDRFKGAELRIGNSQDATVNPICGKVSAVKGSNYLFCCDGMEGKYISVVIPDRHEFLSLCEVEVYGAKPIEGTHCK
# B2: RSN 1: recombinant mature ranaspumin protein without signal peptide, Synthetic Amino Acid Sequence No. 1 (protein, listed as Engystomops pustulosus)
# chain: GGGNIGGGAKLGPEKPATPGIQDLLKSLLSVLNLSPPAIPEDAEAVSYRDAKNGKFRLIKIHLGGELYCHVKQIAGPILALPIVSDVVEVTGKECGKTEDDPLEDFPIP
# B3: RSN 6: recombinant mature ranaspumin protein without signal peptide, Synthetic Amino Acid Sequence No. 6 (protein, listed as Engystomops pustulosus)
# chain: ETLCIPGRMKQLDAGAGRVVAVKSNGDVYQLLENNWVQIPGKLIHVTVGPAGLWGVNKDKNIYKYVDNDWLQVDGLLNQIDAGGNRFVVGVNDNEDIFCLNQDQTTSNAVKLDYKGVDGKLKYYSSGGYGSWGVNAAYDIFYRRNVHPMSCQGTNWENVEGKLVMLEVAEDGSVYGVNYNGHVYKREGITAGNPMGTSWTYLKVDEKVRHVSYDRGVLYVVTIDDRIFRC
# B4: RSN 2: recombinant mature ranaspumin protein without signal peptide, Synthetic Amino Acid Sequence No. 2; main surfactant (protein, listed as Engystomops pustulosus)
# chain: LILDGDLLKDKLKLPVIDNLFGKELLDKFQDDVKDKYGVDTKDLKILKTSEDKRFYYVSVDAGDGEKCKFKIRKDVDVPKMVGRKCRKDDDDDDGY
# B5: RSN 4: recombinant mature ranaspumin protein without signal peptide, Synthetic Amino Acid Sequence No. 4 (protein, listed as Engystomops pustulosus)
# chain: DRNLALDGRATMSSIWMDPDIRQSFLGVAMNGIDGNTDSVYFHGSCFHTGLDSPAWYRVDLLRTSKISSITITNRGDFGSRTNGAEIRIGDSLANNGNNNPRCALVTSIADGETRTFQCNNMVGRYVNIVLTGKTEFLHLCEVQIFGENLPRSFSCQYSNDGMITLLVSTRFMK
# B6: RSN 5: recombinant mature ranaspumin protein without signal peptide, Synthetic Amino Acid Sequence No. 5 (protein, listed as Engystomops pustulosus)
# chain: GAPGGAAGPLLVLNILGSVVHETKPPEGVNLALKGIASSDSIASNGSVTGLAAKAIDGIRVSDFFKGHCSLTNGLNNPTWWKVDLKKSYKISSVFVTNRDDCCTERLLHAEIRIGSNPDHNHNPICAEVKTVASSNIGFCCGGMEGRYVSVSVPRKEQLSLCEVEVYGDLKKVLHCA
# Key:
# [1] = Retention of pesticide (Bifenazate) in leaves with RSN 1-6 mixture as adjuvant, GC/MS quantification; format: in vivo, Arabidopsis thaliana (columbia ecotype); conditions: Floramite + RSN 1-6 mixture vs pesticide alone
# Procedure: 12 four-week-old Arabidopsis thaliana (columbia ecotype) plants were used for the experiment. (6 control, 6 experimental) (FIG. 13).
# Growth condition: plants were grown in soil at in 16-hour days/8-hour nights light cycle with temperatures of 22° C. Lighting was provided with fluorescent bulbs giving an average light intensity of 175 micromoles/meter^2 second. Seeds were cold treated (stratification) for 3 days at 4° C. after imbibition to synchronize germination
# The experimental plants were applied with a mixture of Floramite® and RSN 1-6 mixture (50 μL of 10 mg/mL) directly to the leaves using a pipette. The control plants were applied with just the pesticide. Samples were collected at the end of 5 days and 10 days.
# 4 control leaves and 4 experimental leaves were collected at the end of 5 days and 10 days of application. The leaves were homogenized using liquid nitrogen and extracted using Methanol:Chloroform mix (2:1) (FIG. 14). […]
# A GC/MS instrument (Thermo Focus GC, Polaris ion trap MS) with a DB-5 column was used for quantification of the pesticide. […]
# Concentration of Bifenazate in control leaf sample −0.018 μg/μL (FIG. 15). […] Concentrations were calculated using the peak area of the internal standard compared to the peak area of the pesticide. The experimental leaf was calculated to have a 3.6 times the amount of Bifenazate when compared to the control leaf.
# E. coli = assay: Kirby Bauer antimicrobial assay (disk-diffusion) on E. coli culture plates; format: cell-based, Escherichia coli; conditions: 24 hours; for antimicrobial properties / radius of resistance to the E. coli colonies: 20 μL of 10 mg/mL on filter paper disc, 37° C.; for effect on E. coli colonies (kills or slows growth): conclusion from disk-diffusion; for resistance to E. coli (in words): growth of colonies near the filter paper disc
# Procedure: Antimicrobial agents stop the growth or kill microorganisms such as Escherichia coli (E. coli). The Kirby Bauer antimicrobial assay or disk-diffusion method is used to test what antibiotic will fight against which bacteria strain.^17 The Kirby Bauer antimicrobial assay, is most commonly used to monitor the growth of bacteria growth around a disk, measuring the radius/diameter of the growth from the disk if a gap is present; this can be done in a time period as short as 24 hours or as long as 5 days.^18
# RSN mixture was prepared using equal parts of each protein (RSN 1-6) in a concentration of 10 mg/mL and vortexed until combined.^22 E. coli culture plates were prepared and allowed to dry, small filter paper circles were placed on the plate, with a 20 μL of the RSN sample labeled RSN 1-6.
# Once the protein was placed on the E. coli culture plates, the plates were placed into a new Brunswick Scientific Excella E24 Incubator Shaker set at 37° C., for 24 hours. After 24 hours the plates were taken out of the incubator shaker and observed.
# [2] = Denaturing of ranaspumin proteins with increasing temperature, monitored by circular dichromium (CD); format: physicochemical; conditions: CD 200-300 nm, 0.25 mg/mL, 20-90° C. in 5° C. steps
# Procedure: The secondary structure of ranaspumin proteins can be confirmed with CD to identify if there is a presence of an α-helix, β-sheets or random coils. The CD can also be used to monitor the denaturing of a protein structure by observing the intensity of the bands on the spectra. This experiment uses increasing temperature to determine when ranaspumin proteins start to denature in the secondary structure with the use of a CD spectrum. A 3 mL solution with a concentration of 0.25 mg/mL of RSN 1-6 was diluted from a range of 2.69 mg/mL-0.50 mg/mL stock solution. The Jasco 815 […], with Jasco temperature controller and a water bath attachment was used to analyze the RSN 2 protein structure. The initial temperature was set to 20° C., the wavelength was set to 200-300 nm and the temperature was increased by 5° C. after each measurement and allowing for 60 seconds of stability before recording the next measurement, in a temperature range of 20-90° C. A bank was run for a baseline before a 1.5 mL solution was run through the CD and the spectra were monitored for a change in intensity in the bands.
molecule,measurement,setting,value
COc1ccc(-c2ccccc2)cc1NNC(=O)OC(C)C [Bifenazate],amount of Bifenazate in experimental leaf compared to control leaf,[1]; after 5 days,3.6 times
same,amount of Bifenazate in experimental leaf compared to control leaf,[1]; after 10 days,1.2 times
B1,antimicrobial properties,E. coli,did not show any antimicrobial properties
same,temperature at which the protein fully denatures,[2],70 °C
same,temperature at which the protein starts to denature,[2],70 °C
B2,antimicrobial properties,E. coli,did not show any antimicrobial properties
same,temperature at which the protein denatures further,[2],70 °C
same,temperature at which the protein starts to denature,[2],50 °C
B3,antimicrobial properties,E. coli,did not show any antimicrobial properties
same,secondary structure staying intact up to,[2],30-39 °C
same,slowly denatures until,[2],90 °C
same,temperature at which the protein starts to denature,[2],40 °C
B4,antimicrobial properties,E. coli,presented antimicrobial properties
same,radius of resistance to the E. coli colonies,E. coli,1.1 cm
same,effect on E. coli colonies (kills or slows growth),E. coli,kills the E. coli colonies
same,resistance to E. coli (in words),E. coli,high resistance
same,temperature at which the protein starts to denature,[2],70 °C
B5,antimicrobial properties,E. coli,did not show any antimicrobial properties
same,temperature at which the protein denatures further,[2],90 °C
same,temperature at which the protein starts to denature,[2],50 °C
B6,antimicrobial properties,E. coli,presented antimicrobial properties
same,radius of resistance to the E. coli colonies,E. coli,0.7 cm
same,effect on E. coli colonies (kills or slows growth),E. coli,slows the rate of the growth of the E. coli colonies
same,resistance to E. coli (in words),E. coli,moderate resistance
same,temperature at which the protein fully denatures,[2],70 °C
